Laboratory results published in publication PMC12803514, “The RNA-binding protein HuR modulates the expression of the disease-linked CCL2 rs1024611G-rs13900T haplotype”.

Molecular target: HuR (ELAVL1 human recombinant protein) (Homo sapiens, UniProt Q15717 1-326)
Experiment: EMSA; HuR 0-150 µM as printed (25-200 µM in Methods); 20 mM HEPES pH 7.6, 3 mM MgCl2, 40 mM KCl, 5% glycerol, 2 mM DTT, 20 µg yeast tRNA, 20 U RNasin, 20 µL, on ice 10 min (plus 15 min with antibody); 5% native PAGE, 0.5x TBE
Conditions: protein: commercial

Chain of HuR (ELAVL1 human recombinant protein) (Q15717 whole entry): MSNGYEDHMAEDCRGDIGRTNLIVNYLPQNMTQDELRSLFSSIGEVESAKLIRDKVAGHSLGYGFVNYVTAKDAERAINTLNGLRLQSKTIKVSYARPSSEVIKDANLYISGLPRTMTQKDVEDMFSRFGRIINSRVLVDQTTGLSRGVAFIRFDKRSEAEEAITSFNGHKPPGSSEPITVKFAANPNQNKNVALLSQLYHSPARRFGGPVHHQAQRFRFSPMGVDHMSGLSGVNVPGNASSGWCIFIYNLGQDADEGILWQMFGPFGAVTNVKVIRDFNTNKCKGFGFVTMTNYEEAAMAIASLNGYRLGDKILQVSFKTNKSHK

## CUUUCCCCAGACACCUUGUUUUAUUU (ssRNA) [rs13900T oligoribonucleotide]
  binding result: binds
